According to patent US20210283212A1 (RA PHARMACEUTICALS, published 2021):
Starred links: 1 amine or outer side, 2 acyl side, 3 side chain; linkers in the order of their positions; H or OH if unused. Positions of bridges follow the written chain, without caps; N, C: chain ends. Non-standard residues stand in square brackets, D forms with d. Primed or numbered codes have the meaning given here. No end group written: not given here. Lys‑C8 = N-ε-caprylic lysine, CCCCCCCC(=O)NCCCC[C@H](N[*:1])C(=O)[*:2]; mXylyl(3) = bridging moiety between the two residues given in brackets; m‑xylyl = bridging moiety between the two residues given in brackets; mXylyl″ = bridging moiety between the two marked residues; Ala(1H-tetrazol-5-yl) = N[C@@H](Cc1nnn[nH]1)C(=O)O; Trp(7-aza) = N[C@@H](Cc1c[nH]c2ncccc12)C(=O)O; mXylyl(4) = bridging moiety between residues; NMeD = CN[C@@H](CC(=O)O)C(=O)O; dPhg = N[C@@H](C(=O)O)c1ccccc1; Chg = N[C@H](C(=O)O)C1CCCCC1; Phg = N[C@H](C(=O)O)c1ccccc1; Tle = CC(C)(C)[C@H](N)C(=O)O; Lys‑C12 = N-ε-lauryl lysine; NMeS = CN[C@@H](CO)C(=O)O; NMeA = CN[C@@H](C)C(=O)O; Nva = CCC[C@H](N)C(=O)O; Sar = CNCC(=O)O

Molecular target: human C5 protein (human, UniProt P01031 19-673; P01031 678-1676)
Experiment: cell-based or functional assay

| Binder | Avg. IC50, human hemolysis assay [nM] |
| --- | --- |
| Ac-[Nva]CYEN[Tle]Y[Trp(7-aza)]ECP[Phg][Nva]-NH2 (linker 2-10 via mXylyl″) [R3018] | > 5730 |
| Ac-CVEAFCD[Tle]Y[Trp(7-aza)]EYP[Phg][Nva]-NH2 (linker 1-6 via mXylyl(3)) [R3153] | 175 |
| Ac-CVERFCA[Tle]Y[Trp(7-aza)]EYP[Phg][Nva]-NH2 (linker 1-6 via m‑xylyl) [R3157] | 84.5 |
| Ac-CVERFCA[Tle]Y[Trp(7-aza)]EYP[dPhg][Nva]-NH2 (linker 1-6 via m‑xylyl) [R3158] | 327 |
| Ac-CVERACD[Tle]Y[Trp(7-aza)]EYP[dPhg][Nva]-NH2 (linker 1-6 via mXylyl(3)) [R3156] | > 10000 |
| Ac-CVERACD[Tle]Y[Trp(7-aza)]EYP[Phg][Nva]-NH2 (linker 1-6 via mXylyl(3)) [R3155] | 1530 |
| Ac-[Nva]C[Phg]T[Trp(7-aza)]AY[NMeS]HC[Nva]-NH2 (linker 2-10 via mXylyl(4)) [R3035] | > 50000 |
| Ac-[Nva]C[Phg]A[Trp(7-aza)]EY[NMeS]HC[Nva]-NH2 (linker 2-10 via mXylyl(4)) [R3033] | 131 |
| Ac-C[Tle]Y[Trp(7-aza)]EY[NMeS]HC-NH2 (linker 1-9 via mXylyl″) [R3016] | > 13000 |
| Ac-[Nva]C[Phg]T[Trp(7-aza)]EY[NMeA]HC[Nva]-NH2 (linker 2-10 via mXylyl(4)) [R3037] | 276 |
| Ac-YPYC[Phg][Trp(7-aza)][Tle]E[Nva]NY[Nva]E-NH2 (SMILES CCC[C@H](NC(=O)[C@H](Cc1ccc(O)cc1)NC(=O)[C@H](CC(N)=O)NC(=O)[C@H](CCC)NC(=O)[C@H](CCC(=O)O)NC(=O)[C@@H](NC(=O)[C@H](Cc1c[nH]c2ncccc12)NC(=O)[C@@H](NC(=O)[C@H](CS)NC(=O)[C@H](Cc1ccc(O)cc1)NC(=O)[C@@H]1CCCN1C(=O)[C@H](Cc1ccc(O)cc1)NC(C)=O)c1ccccc1)C(C)(C)C)C(=O)N[C@@H](CCC(=O)O)C(N)=O) [R3023] | > 100000 |
| Ac-CVERFC[Ala(1H-tetrazol-5-yl)][Tle]Y[Trp(7-aza)]EYP[Chg][Nva]-NH2 (linker 1-6 via mXylyl(3)) [R3168] | 7.5 |
| Ac-CAERFCD[Tle]Y[Trp(7-aza)]EYP[Phg][Lys‑C8]-NH2 (linker 1-6 via m‑xylyl) [R3166] | 17.5 |
| Ac-CVEAFCD[Tle]Y[Trp(7-aza)]EYP[dPhg][Nva]-NH2 (linker 1-6 via mXylyl(3)) [R3154] | 592 |
| Ac-CAERFCD[Tle]Y[Trp(7-aza)]EYP[Phg][Lys‑C12]-NH2 (linker 1-6 via m‑xylyl) [R3164] | 36 |
| Ac-[Nva]C[Phg]T[Trp(7-aza)]EY[NMeS]HC[Nva]P[Nva]-NH2 (cysteine pairing not given here) [R3022] | > 10200 |
| Ac-CAERFCD[Tle]Y[Trp(7-aza)]EYP[Phg]K-NH2 (linker 1-6 via m‑xylyl) [R3161] | 7 |
| Ac-C[Phg]T[Trp(7-aza)]EY[NMeS]HC-NH2 (linker 1-9 via mXylyl″) [R3015] | > 3960 |
| Ac-[Nva]C[Phg]T[Trp(7-aza)]EA[NMeS]HC[Nva]-NH2 (linker 2-10 via mXylyl(4)) [R3036] | > 50000 |
| Ac-AC[Phg]T[Trp(7-aza)]EY[NMeS]HC[Nva]-NH2 (linker 2-10 via mXylyl(4)) [R3031] | 1090 |
| Ac-[Nva]CAT[Trp(7-aza)]EY[NMeS]HC[Nva]-NH2 (linker 2-10 via mXylyl(4)) [R3032] | > 10000 |
| Ac-[Tle]Y[Trp(7-aza)]EYP[Phg][Nva]-NH2 (SMILES CCC[C@H](NC(=O)[C@@H](NC(=O)[C@@H]1CCCN1C(=O)[C@H](Cc1ccc(O)cc1)NC(=O)[C@H](CCC(=O)O)NC(=O)[C@H](Cc1c[nH]c2ncccc12)NC(=O)[C@H](Cc1ccc(O)cc1)NC(=O)[C@@H](NC(C)=O)C(C)(C)C)c1ccccc1)C(N)=O) [R3028] | > 10000 |
| Ac-[Nva]CYEN[Tle]Y[Trp(7-aza)]EYP[Phg][Nva]C-NH2 (linker 2-14 via mXylyl″) [R3019] | 1320 |
| MCSERYCEVRWEY-NH2 (linker 2-7 via mXylyl″) [R3020] | 24.6 |
| Ac-CVERFC[NMeD][Tle]Y[Trp(7-aza)]EYP[Chg][Nva]-NH2 (linker 1-6 via m‑xylyl) [R3172] | 12 |
| Ac-[Nva]CYEN[Tle]Y[Trp(7-aza)]EY[Sar][Nva][NMeS]-NH2 (SMILES CCC[C@H](NC(C)=O)C(=O)N[C@@H](CS)C(=O)N[C@@H](Cc1ccc(O)cc1)C(=O)N[C@@H](CCC(=O)O)C(=O)N[C@@H](CC(N)=O)C(=O)N[C@H](C(=O)N[C@@H](Cc1ccc(O)cc1)C(=O)N[C@@H](Cc1c[nH]c2ncccc12)C(=O)N[C@@H](CCC(=O)O)C(=O)N[C@@H](Cc1ccc(O)cc1)C(=O)N(C)CC(=O)N[C@@H](CCC)C(=O)N(C)[C@@H](CO)C(N)=O)C(C)(C)C) [R3001] | 67.2 |
| Ac-CAERFCD[Tle]Y[Trp(7-aza)]EYP[dPhg]K-NH2 (linker 1-6 via m‑xylyl) [R3162] | 16.5 |
